Measured values taken from the supplement of paper PMC11865577.

Tests used:
Experiment in all cases: pull-down binding Z-score (relative to library population); higher = stronger binding
[1] = system: TO-3-N3-2 (biotin conjugate); conditions: RNA library: Library-2
In short: (§1)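 Streptavidin beads bearing 100 pmol of a biotin-conjugated small molecule were incubated for 60 min at 25 °C with 1 μg of heat-folded, Cy5- or Cy3-end-labelled RNA library in phosphate/NaCl/KCl buffer. Hot SDS eluted the RNA that stayed bound after three washes, and this RNA was hybridised for 20 h at 55.5 °C to a DNA barcode microarray. Binding was expressed as a Z-score against the library mean and standard deviation, after subtraction of a beads-only signal and trimmed averaging of barcoded replicate probes.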

[2] = system: TO-3-N3 (biotin conjugate); conditions: RNA library: Library-2
In short: as §1

[3] = system: TO-N3 (biotin conjugate); conditions: RNA library: Library-2
In short: as §1

[4] = system: TO-N3-2 (biotin conjugate); conditions: RNA library: Library-2
In short: as §1

[5] = system: G-clamp-N3 (biotin conjugate); conditions: RNA library: Library-1 (pre-miRNA loops + repeats)
In short: as §1

| Sequence | pull-down binding Z-score [1] | pull-down binding Z-score [2] | pull-down binding Z-score [3] | pull-down binding Z-score [4] | pull-down binding Z-score [5] |
| --- | --- | --- | --- | --- | --- |
| UGAGUACAUUAUUUAUGAUUAAUCA [hsa-mir-376a-1] | -0.0505 | -0.874 | -0.978 | -0.847 | -1.62 |
| GAGUGAGGCCCAGUGGUCACCGCCGCCCUC [hsa-mir-4754] | 0.3 | 0.828 | 1.11 | 1.73 | -0.652 |
| GUUGGAUGGUCUAAUUGUGAAGCUCCUAAC [hsa-mir-141] | -0.259 | -0.103 | -0.138 | -0.0552 | -0.549 |
| UGGUGGGGGCCGGGGCAGGCCCAGCGAAA [hsa-mir-648] | 1.37 | 1.96 | 2.27 | 1.94 | 1.1 |
| GCUAACUGUGACCUUAGC [hsa-mir-4729] | -0.181 | 0.00513 | -0.187 | -0.478 | -0.373 |
| AGUUGGACACUCCAUGUGGUAGAGUGUC [hsa-mir-223] | -0.0653 | 0.617 | 0.563 | 0.0461 | 0.453 |
| UCCUCCACAAAUGCGUGUGGAGGA [hsa-mir-4633] | -0.698 | -0.89 | -1.34 | -1.6 | 0.135 |
| AGAUGAGUUUAUGUUUUAUCCAACU [hsa-mir-193b] | -0.228 | -0.608 | -0.416 | -0.135 | -1.8 |
| UUGGCACAGGGAAGCGAGUCUGCCAA [hsa-mir-195] | 0.354 | 0.0632 | 0.504 | 1.23 | 2.53 |
| GAGGGGCAUGCACUGUGUUCACCCUG [hsa-mir-134] | -0.0434 | 0.47 | 0.687 | 0.807 | -0.276 |
| CCACUACCGGUGA [hsa-mir-4658] | -0.309 | -0.207 | -0.127 | -0.288 | -0.573 |
| UUCGCAUUAUUUAAUGAUGCCCA [hsa-mir-323b] | -0.241 | -0.392 | -0.467 | -0.486 | -0.751 |
| GCCAGUGUUCAAGGGCCCCUCCUCUAGUACUCCCUGUUUGUGUUCUGCCACUGA [hsa-mir-6857] | 0.527 | 0.324 | 1.1 | 1.37 | -0.797 |
| AAUUUUUUUUUAAUUUAAAAAAUU [hsa-mir-3938] | 0.127 | -0.808 | -1.13 | -1.36 | 0.843 |
| UGUAAAUAACUACAAUUCUCUUAACUCCGUAGCAGUUGC [hsa-mir-7844] | -0.0721 | -0.267 | -0.11 | 0.177 | -1.5 |
| GUCUCGGUCCUUUGGAACGUGGC [hsa-mir-4470] | -0.387 | -0.39 | -0.607 | -0.476 | -0.378 |
| CAGUGAGCUAUGAUCAUGUCCCUG [hsa-mir-1254-2] | -0.1 | 0.0243 | 0.105 | 0.362 | 0.526 |
| AGAAACCUACUUAUUACAUAGUUUACAUAAGAAGCGUGAU [hsa-mir-1322] | -0.0921 | -0.129 | 0.0288 | -0.00549 | -0.594 |
| UGUGGCAGUGGCAGAGGUCGCUACA [hsa-mir-6856] | 0.0517 | 0.436 | 0.704 | 1.13 | 1.12 |

| Sequence | pull-down binding Z-score [1] | pull-down binding Z-score [2] | pull-down binding Z-score [3] | pull-down binding Z-score [4] | pull-down binding Z-score [5] |
| --- | --- | --- | --- | --- | --- |
| UUGGCGUUAAGAUUCUAAAAUUAUCUCCAG [hsa-mir-16-1] | -0.307 | -0.825 | -0.952 | -0.642 | -1.03 |
| CUGGGGAGCCGGACAGCUCCCUUCCCAG [hsa-mir-3155a] | -0.168 | 0.918 | 0.7 | -0.0145 | 0.802 |
| CAGCCUUGACAACAGGCUG [hsa-mir-3130-2] | -0.184 | 0.503 | 0.391 | -0.289 | -0.151 |
| ACACCUGUAAAGAAUUGGUCAGCCUGGGGACUGGUGAUCUCUGCAGCUGU [hsa-mir-4265] | 0.475 | 1.15 | 1.39 | 1.42 | -0.15 |
| GAGACACUC [hsa-mir-6126] | -0.578 | -0.431 | -0.502 | -0.469 | -0.909 |
| AGGCCAUACGUGUUGGAGAUU [hsa-mir-4461] | 0.301 | 0.627 | 0.792 | 0.79 | 0.253 |
| UUUGCCAUUACUUUCAGUGGCAAA [hsa-mir-548aq] | -0.894 | -0.975 | -1.48 | -1.11 | 0.135 |
| CGCGGGCGGGUCCCAGGCUGGGCCCCUCGGAGGCCGGGUGCUCACUGCCCCGUCCCGG [hsa-mir-6789] | -0.0304 | 0.75 | 1.7 | 4.13 | 0.322 |
| UCUUCCCAGAGUCAGGAAAA [hsa-mir-320c-1] | -0.0416 | -0.17 | -0.0041 | 0.191 | -1.1 |
| AGCUUCUUUAUAAGAAGAGGAAACU [hsa-mir-3923] | 0.00803 | 0.147 | -0.151 | -0.5 | -0.169 |
| AGGUCUCCUGGCAU [hsa-mir-4256] | -0.439 | -0.274 | -0.164 | -0.096 | -0.698 |
| UGAAUUGAAAUGCGUUACAUUCA [hsa-mir-95] | -0.0666 | 0.0702 | -0.0852 | 0.088 | -0.13 |
| AAAAUUCAUGGCCUACAGCUGCCUCUUGCCAAACUGCACUGGAUUUU [hsa-mir-5010] | -0.176 | -0.25 | -0.482 | 0.111 | -1.45 |
| AAGGCCAGGACCCGCUGACCCAU [hsa-mir-6872] | -0.0792 | 0.148 | 0.411 | 0.567 | -1.17 |
| GCAGCUGGAAUUCAAGCCCUGCUGC [hsa-mir-6882] | -0.319 | -0.477 | -0.475 | 0.0816 | -0.0183 |
| AAUGCUGUGUUUCUGUAUGGUAUU [hsa-mir-92a-1] | -0.22 | 0.212 | 0.143 | -0.268 | -0.453 |
| GCAUGCCC [hsa-mir-1178] | 0.000996 | 0.196 | 0.287 | 0.552 | -0.547 |
| UGCGUUAGGAUUUCUGUAUCAUCCUCCUAACGCA [hsa-mir-3166] | 0.141 | 0.576 | 0.306 | -0.758 | 0.901 |
